B1: CDC14A (parent)
chain: LWVQGDIFRSKLKNRPSSEGSINK
B2: STX11 (parent)
chain: FQRAMHDYNQAEMKQRDNCKIRIQ

Variants of: B1
Test: protein stability index of a GFP-peptide fusion (GPS, HEK-293T) (PSI 1-6); higher = more stable
Conditions: c terminus: a fixed tail appended
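Note: lentivirally expressed fusions sorted by FACS into six bins by GFP to DsRed ratio, PSI derived from sequencing read proportions per bin multiplied by bin number.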

Protein stability index, by site and new letter:
L12: M 2.41; E 3.51; V 2.36; N 2.82; W 2.42; R 2.22; F 2.29; Y 2.61; C 3.03; I 2.8; P 3.09; D 2.83; H 2.71; T 3.17; A 3.21; G 2.83; Q 2.92; K 3.16; S 2.89
W2: C 3.8; T 4.6; Q 4.28; F 3.07; A 4.05; M 3.48; D 4.4; N 4.07; L 2.98; G 4.04; P 4.26; H 3.81; R 3.46; V 2.6; E 5.28; I 2.51; S 4.49; K 3.74; Y 2.67
R9: G 2.56; A 3.05; Y 2.37; I 2.4; V 2.65; D 3.68; L 2.35; E 3.21; N 3.4; K 3.02; M 2.18; H 2.55; Q 2.91; T 2.85; W 1.88; S 2.6; F 2.57; C 2.22; P 3.18
K11: L 2.23; F 2.3; H 2.69; V 2.36; R 2.72; C 2.22; E 2.63; S 2.99; D 2.38; M 2.49; Q 2.33; A 2.26; I 1.66; P 3.22; Y 1.93; G 3.68; W 2.04; N 3
K13: D 2.87; L 2.94; T 2.7; R 2.67; M 1.93; Y 1.89; C 2.2; P 3.01; E 2.53; Q 2.69; N 2.31; H 2.55; F 1.68; G 2.05; V 2.41; S 2.54; A 2.38; I 2.15
F8: T 3.3; V 3.06; L 2.75; K 3.23; E 4.43; R 2.92; G 3.01; Q 3.78; N 3.01; M 2.42; W 2.51; P 4.1; I 2.62; A 3.43; D 3.67; H 2.97; C 3.14; S 3.34; Y 3.25
L1: D 4.57; E 4.43; M 2.79; F 1.75; V 2.2; G 3.03; W 2.3; P 3.75; T 4.24; A 3.37; C 3.69; N 4.3; H 3.37; I 2.17; K 3.49; Q 2.79; S 4.05; Y 2.43; R 4.17
I7: Q 2.97; R 2.31; K 3.54; W 1.71; E 3.71; P 3.15; Y 2.66; F 2.01; D 3.35; S 3.21; N 3.82; L 2.04; C 3.09; M 2.31; T 3.3; V 2.98; A 3.29; G 2.83; H 3.37
Q4: Y 1.95; L 2.62; C 2.46; H 2.67; E 2.19; A 1.9; R 1.87; I 2.11; N 2.66; T 2.41; W 1.82; S 3.29; F 1.73; K 2.19; P 2.74; V 1.81
N14: P 2.45; R 1.91; M 2; D 2.67; Q 2.36; H 2.26; I 2.43; S 1.99; F 2.48; A 2.6; Y 2.53; W 2.15; E 2.7; L 2.47; G 2.24; C 2.13; K 2.55; T 1.88
G5: C 2.3; Q 2.76; H 2.52; V 1.53; P 2.69; Y 1.39; A 2.06; K 2.3; I 2.35; M 1.75; S 2.52; W 1.87; L 2.92; R 2.35; T 2.29; N 2.63; D 3.21; E 3.34; F 2.59
V3: E 4.85; F 2.64; D 3.58; C 2.94; N 2.71; L 2.07; G 3.18; A 3.45; M 2.73; Q 3.32; T 3.12; Y 2.89; W 2.55; P 3.94; H 1.99; K 3.26; R 3.34; S 3.06
S10: W 1.54; D 3.07; A 2.29; C 2.3; E 2.44; V 2.92; G 3.17; P 2.27; R 3.23; T 2.45; H 2.48; Q 3.37; Y 3.11; M 2.49; F 2.05; K 2.35; N 2.48; L 3.46; I 2.31
D6: S 2.28; I 2.69; N 2.83; P 2.34; M 2.61; V 1.43; H 2.24; G 2.64; L 1.71; T 1.84; C 1.8; A 2.27; Y 2.45; R 1.9; W 1.37; F 1.58; Q 1.99; E 2.63; K 1.74
R15: N 2.57; M 2.07; Q 3.09; E 3.02; C 2.54; G 2.91; L 2.92; H 2.62; D 2.61; P 2.81; A 2.81; F 2.39; K 3; I 2.52

Variants of: B2
Test: as above
Conditions: c terminus: a fixed tail appended

Protein stability index: each site, then its substitutions
R22: W 1.74; V 2.6; M 2.8; T 2.54; N 2.61; F 2.04; H 2.49; S 3.44; D 3.13; Q 2.9; C 2.37; Y 2.59; G 2.57; E 2.67; K 2.42; A 2.61; P 3.02; L 2.53; I 2.58
I21: V 1.92; T 3.17; Y 2.93; W 3.17
I23: M 2.99; H 2.8; Q 3.52; G 3.25; Y 2.98; C 2.9; W 2.83; F 2.5; K 2.93; E 3.53; N 3.78; L 2.87; V 2.85; R 2.74; A 3.51; S 2.66; D 3.38; P 3.24; T 3.19
Q24: D 2.81; G 2.75; M 2.69; H 2.74; L 3.09; A 2.62; E 3.17; S 2.27; K 2.87; C 2.3; N 2.95; F 2.17; T 2.77; V 2.42; W 1.6; Y 2.05; I 2.36; R 2.33; P 2.83

From the supplement of paper PMC10567573
